Data as given in patent US20260053942A1 (Astellas, published 2026).

Target: T1, human TROP2 as used in the Biacore measurements (human, UniProt P09758 27-274)
T1 sequence: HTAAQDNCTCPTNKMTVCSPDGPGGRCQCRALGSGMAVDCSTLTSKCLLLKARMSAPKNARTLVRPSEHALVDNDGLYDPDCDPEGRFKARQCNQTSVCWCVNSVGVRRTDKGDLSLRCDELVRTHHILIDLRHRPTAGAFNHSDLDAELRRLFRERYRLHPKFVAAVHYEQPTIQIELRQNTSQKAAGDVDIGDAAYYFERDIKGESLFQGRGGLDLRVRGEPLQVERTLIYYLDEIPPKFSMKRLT
Test: SPR (Biacore), format not stated

B1: 2293-C04, affinity matured anti-Trop2 antibody from a synthetic ribosome display human antibody library (antibody, V domains shown)
VH: EVQLVESGGGLVQPGGSLRLSCAASGFNISNKWIHWVRQAPGKGLEWVGWIAPSSGDTDYADSVKGRFTISADTSKNTAYLQMNSLRAEDTAVYYCAREGYNWYWYVLDYWGQGTLVTVSS
VL: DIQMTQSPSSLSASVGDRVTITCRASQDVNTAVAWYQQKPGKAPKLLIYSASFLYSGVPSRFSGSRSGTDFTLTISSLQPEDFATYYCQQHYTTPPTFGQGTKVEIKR
modifications: SEQ ID NO 17 is listed with pAcF at K42; the filing does not say whether the antibody measured by Biacore carried it
- Kd: 1.1 nM
